According to the supplement of paper PMC5998384:

Assays:
HeLa Kyoto [1] = assay: thermal stability score vs G1/S (z-score of summed log2 fold changes over temperatures); higher = more thermally stable than in G1/S
HeLa Kyoto [2] = assay: solubility change mitosis vs G1/S (difference of NP-40 vs SDS log2 ratios) (log2 ratio difference); higher = more soluble in mitosis
HeLa Kyoto [3] = assay: melting temperature (median over replicates), in situ; higher = more thermally stable
HeLa Kyoto [4] = assay: solubility in G1/S (NP-40 vs SDS abundance) (log2 ratio); higher = more soluble; conditions: cell cycle stage: G1/S
[5] = cell cycle stage: early G1 (4.5 h after nocodazole release)
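For melting temperature (median over replicates), in situ in this document: HeLa Kyoto cells synchronized by double thymidine or nocodazole block, proteins quantified by TMT10plex mass spectrometry, three independent biological replicates.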
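For solubility change mitosis vs G1/S (difference of NP-40 vs SDS log2 ratios) in this document: synchronized HeLa Kyoto cells (double thymidine block for G1/S, nocodazole release for mitosis), protein amounts in NP-40 versus SDS lysates quantified by mass spectrometry, three biological replicates.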
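For solubility in G1/S (NP-40 vs SDS abundance) in this document: HeLa Kyoto cells arrested at G1/S by double thymidine block, proteins quantified by TMT10plex mass spectrometry in mild NP-40 versus SDS extracts, three biological replicates.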
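For thermal stability score vs G1/S (z-score of summed log2 fold changes over temperatures) in this document: synchronized HeLa Kyoto cells, proteins quantified by TMT10plex mass spectrometry, three biological replicates, mitosis taken 0.5 h after nocodazole release, G1/S directly after double thymidine block.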

Row | Sequence | thermal stability score (HeLa Kyoto [1]; [5]) | thermal stability score (HeLa Kyoto [1]; cell cycle stage: mitosis) | solubility change mitosis (log2) (HeLa Kyoto [2]) | melting temperature (HeLa Kyoto [3]; cell cycle stage: G1/S) | melting temperature (HeLa Kyoto [3]; cell cycle stage: mitosis) | solubility in G1/S (log2) (HeLa Kyoto [4])
1 | MASSCAVQVKLELGHRAQVRKKPTVEGFTHDWMVFVRGPEHSNIQHFVEKVVFHLHESFPRPKRVCKDPPYKVEESGYAGFILPIEVYFKNKEEPRKVRFDYDLFLHLEGHPPVNHLRCEKLTFNNPTEDFRRKLLKAGGDPNRSIHTSSSSSSSSSSSSSSSSSSSSSSSSSSSSSSSSSSSSSSSSSSTSFSKPHKLMKEHKEKPSKDSREHKSAFKEPSRDHNKSSKESSKKPKENKPLKEEKIVPKMAFKEPKPMSKEPKPDSNLLTITSGQDKKAPSKRPPISDSEELSAKKRKKSSSEALFKSFSSAPPLILTCSADKKQIKDKSHVKMGKVKIESETSEKKKSTLPPFDDIVDPNDSDVEENISSKSDSEQPSPASSSSSSSSSFTPSQTRQQGPLRSIMKDLHSDDNEEESDEVEDNDNDSEMERPVNRGGSRSRRVSLSDGSDSESSSASSPLHHEPPPPLLKTNNNQILEVKSPIKQSKSDKQIKNGECDKAYLDELVELHRRLMTLRERHILQQIVNLIEETGHFHITNTTFDFDLCSLDKTTVRKLQSYLETSGTS [MLLT3] | -0.0552 | 0.557 | 0.411 | 48.5 °C | 50.5 °C | -0.355
2 | MASSDIQVKELEKRASGQAFELILSPRSKESVPEFPLSPPKKKDLSLEEIQKKLEAAEERRKSHEAEVLKQLAEKREHEKEVLQKAIEENNNFSKMAEEKLTHKMEANKENREAQMAAKLERLREKDKHIEEVRKNKESKDPADETEAD [STMN1] | -6.5 | -5.49 | 0.208 | 56.7 °C | 64.1 °C | 0.635
3 | MASSSPDSPCSCDCFVSVPPASAIPAVIFAKNSDRPRDEVQEVVFVPAGTHTPGSRLQCTYIEVEQVSKTHAVILSRPSWLWGAEMGANEHGVCIGNEAVWTKEPVGEGEALLGMDLLRLALERSSSAQEALHVITGLLEHYGQGGNCLEDAAPFSYHSTFLLADRTEAWVLETAGRLWAAQRIQEGARNISNQLSIGTDISAQHPELRTHAQAKGWWDGQGAFDFAQIFSLTQQPVRMEAAKARFQAGRELLRQRQGGITAEVMMGILRDKESGICMDSGGFRTTASMVSVLPQDPTQPCVHFLTATPDPSRSVFKPFIFGMGVAQAPQVLSPTFGAQDPVRTLPRFQTQVDRRHTLYRGHQAALGLMERDQDRGQQLQQKQQDLEQEGLEATQGLLAGEWAPPLWELGSLFQAFVKRESQAYA [SCRN2] | 0.593 | 0.947 | -0.201 | 51 °C | 51.1 °C | 0.282
4 | MASSSTVPLGFHYETKYVVLSYLGLLSQEKLQEQHLSSPQGVQLDIASQSLDQEILLKVKTEIEEELKSLDKEISEAFTSTGFDRHTSPVFSPANPESSMEDCLAHLGEKVSQELKEPLHKALQMLLSQPVTYQAFRECTLETTVHASGWNKILVPLVLLRQMLLELTRRGQEPLSALLQFGVTYLEDYSAEYIIQQGGWGTVFSLESEEEEYPGITAEDSNDIYILPSDNSGQVSPPESPTVTTSWQSESLPVSLSASQSWHTESLPVSLGPESWQQIAMDPEEVKSLDSNGAGEKSENNSSNSDIVHVEKEEVPEGMEEAAVASVVLPARELQEALPEAPAPLLPHITATSLLGTREPDTEVITVEKSSPATSLFVELDEEEVKAATTEPTEVEEVVPALEPTETLLSEKEINAREESLVEELSPASEKKPVPPSEGKSRLSPAGEMKPMPLSEGKSILLFGGAAAVAILAVAIGVALALRKK [BCL2L13] | -2.28 | -2.76 | -0.255 | 53.9 °C | 54.1 °C | 0.337
5 | MASSVGNVADSTEPTKRMLSFQGLAELAHREYQAGDFEAAERHCMQLWRQEPDNTGVLLLLSSIHFQCRRLDRSAHFSTLAIKQNPLLAEAYSNLGNVYKERGQLQEAIEHYRHALRLKPDFIDGYINLAAALVAAGDMEGAVQAYVSALQYNPDLYCVRSDLGNLLKALGRLEEAKACYLKAIETQPNFAVAWSNLGCVFNAQGEIWLAIHHFEKAVTLDPNFLDAYINLGNVLKEARIFDRAVAAYLRALSLSPNHAVVHGNLACVYYEQGLIDLAIDTYRRAIELQPHFPDAYCNLANALKEKGSVAEAEDCYNTALRLCPTHADSLNNLANIKREQGNIEEAVRLYRKALEVFPEFAAAHSNLASVLQQQGKLQEALMHYKEAIRISPTFADAYSNMGNTLKEMQDVQGALQCYTRAIQINPAFADAHSNLASIHKDSGNIPEAIASYRTALKLKPDFPDAYCNLAHCLQIVCDWTDYDERMKKLVSIVADQLEKNRLPSVHPHHSMLYPLSHGFRKAIAERHGNLCLDKINVLHKPPYEHPKDLKLSDGRLRVGYVSSDFGNHPTSHLMQSIPGMHNPDKFEVFCYALSPDDGTNFRVKVMAEANHFIDLSQIPCNGKAADRIHQDGIHILVNMNGYTKGARNELFALRPAPIQAMWLGYPGTSGALFMDYIITDQETSPAEVAEQYSEKLAYMPHTFFIGDHANMFPHLKKKAVIDFKSNGHIYDNRIVLNGIDLKAFLDSLPDVKIVKMKCPDGGDNADSSNTALNMPVIPMNTIAEAVIEMINRGQIQITINGFSISNGLATTQINNKAATGEEVPRTIIVTTRSQYGLPEDAIVYCNFNQLYKIDPSTLQMWANILKRVPNSVLWLLRFPAVGEPNIQQYAQNMGLPQNRIIFSPVAPKEEHVRRGQLADVCLDTPLCNGHTTGMDVLWAGTPMVTMPGETLASRVAASQLTCLGCLELIAKNRQEYEDIAVKLGTDLEYLKKVRGKVWKQRISSPLFNTKQYTMELERLYLQMWEHYAAGNKPDHMIKPVEVTESA [OGT] | -0.271 | 1.57 | -0.0669 | 49.4 °C | 50.3 °C | 0.302
6 | MASTNAESQLQRIIRDLQDAVTELSKEFQEAGEPITDDSTSLHKFSYKLEYLLQFDQKEKATLLGNKKDYWDYFCACLAKVKGANDGIRFVKSISELRTSLGKGRAFIRYSLVHQRLADTLQQCFMNTKVTSDWYYARSPFLQPKLSSDIVGQLYELTEVQFDLASRGFDLDAAWPTFARRTLTTGSSAYLWKPPSRSSSMSSLVSSYLQTQEMVSNFDLNSPLNNEALEGFDEMRLELDQLEVREKQLRERMQQLDRENQELRAAVSQQGEQLQTERERGRTAAEDNVRLTCLVAELQKQWEVTQATQNTVKELQTCLQGLELGAAEKEEDYHTALRRLESMLQPLAQELEATRDSLDKKNQHLASFPGWLAMAQQKADTASDTKGRQEPIPSDAAQEMQELGEKLQALERERTKVEEVNRQQSAQLEQLVKELQLKEDARASLERLVKEMAPLQEELSGKGQEADQLWRRLQELLAHTSSWEEELAELRREKKQQQEEKELLEQEVRSLTRQLQFLETQLAQVSQHVSDLEEQKKQLIQDKDHLSQQVGMLERLAGPPGPELPVAGEKNEALVPVNSSLQEAWGKPEEEQRGLQEAQLDDTKVQEGSQEEELRQANRELEKELQNVVGRNQLLEGKLQALQADYQALQQRESAIQGSLASLEAEQASIRHLGDQMEASLLAVRKAKEAMKAQMAEKEAILQSKEGECQQLREEVEQCQQLAEARHRELRALESQCQQQTQLIEVLTAEKGQQGVGPPTDNEARELAAQLALSQAQLEVHQGEVQRLQAQVVDLQAKMRAALDDQDKVQSQLSMAEAVLREHKTLVQQLKEQNEALNRAHVQELLQCSEREGALQEERADEAQQREEELRALQEELSQAKCSSEEAQLEHAELQEQLHRANTDTAELGIQVCALTVEKERVEEALACAVQELQDAKEAASREREGLERQVAGLQQEKESLQEKLKAAKAAAGSLPGLQAQLAQAEQRAQSLQEAAHQELNTLKFQLSAEIMDYQSRLKNAGEECKSLRGQLEEQGRQLQAAEEAVEKLKATQADMGEKLSCTSNHLAECQAAMLRKDKEGAALREDLERTQKELEKATTKIQEYYNKLCQEVTNRERNDQKMLADLDDLNRTKKYLEERLIELLRDKDALWQKSDALEFQQKLSAEERWLGDTEANHCLDCKREFSWMVRRHHCRICGRIFCYYCCNNYVLSKHGGKKERCCRACFQKLSEGPGSPDSSGSGTSQGEPSPALSPASPGPQATGGQGANTDYRPPDDAVFDIITDEELCQIQESGSSLPETPTETDSLDPNAAEQDTTSTSLTPEDTEDMPVGQDSEICLLKSGELMIKVPLTVDEIASFGEGSRELFVRSSTYSLIPITVAEAGLTISWVFSSDPKSISFSVVFQEAEDTPLDQCKVLIPTTRCNSHKENIQGQLKVRTPGIYMLIFDNTFSRFVSKKVFYHLTVDRPVIYDGSDFL [FYCO1] | -0.119 | 0.0455 | -0.142 | 51.3 °C | 51 °C | 0.0536
7 | MASYPSGSGKPKAKYPFKKRASLQASTAAPEARGGLGAPPLQSARSLPGPAPCLKHFPLDLRTSMDGKCKEIAEELFTRSLAESELRSAPYEFPEESPIEQLEERRQRLERQISQDVKLEPDILLRAKQDFLKTDSDSDLQLYKEQGEGQGDRSLRERDVLEREFQRVTISGEEKCGVPFTDLLDAAKSVVRALFIREKYMALSLQSFCPTTRRYLQQLAEKPLETRTYEQGPDTPVSADAPVHPPALEQHPYEHCEPSTMPGDLGLGLRMVRGVVHVYTRREPDEHCSEVELPYPDLQEFVADVNVLMALIINGPIKSFCYRRLQYLSSKFQMHVLLNEMKELAAQKKVPHRDFYNIRKVDTHIHASSCMNQKHLLRFIKRAMKRHLEEIVHVEQGREQTLREVFESMNLTAYDLSVDTLDVHADRNTFHRFDKFNAKYNPIGESVLREIFIKTDNRVSGKYFAHIIKEVMSDLEESKYQNAELRLSIYGRSRDEWDKLARWAVMHRVHSPNVRWLVQVPRLFDVYRTKGQLANFQEMLENIFLPLFEATVHPASHPELHLFLEHVDGFDSVDDESKPENHVFNLESPLPEAWVEEDNPPYAYYLYYTFANMAMLNHLRRQRGFHTFVLRPHCGEAGPIHHLVSAFMLAENISHGLLLRKAPVLQYLYYLAQIGIAMSPLSNNSLFLSYHRNPLPEYLSRGLMVSLSTDDPLQFHFTKEPLMEEYSIATQVWKLSSCDMCELARNSVLMSGFSHKVKSHWLGPNYTKEGPEGNDIRRTNVPDIRVGYRYETLCQELALITQAVQSEMLETIPEEAGITMSPGPQ [AMPD2] | -0.578 | -2.37 | -0.181 | 56.2 °C | 55 °C | 0.0591
8 | MATAATIPSVATATAAALGEVEDEGLLASLFRDRFPEAQWRERPDVGRYLRELSGSGLERLRREPERLAEERAQLLQQTRDLAFANYKTFIRGAECTERIHRLFGDVEASLGRLLDRLPSFQQSCRNFVKEAEEISSNRRMNSLTLNRHTEILEILEIPQLMDTCVRNSYYEEALELAAYVRRLERKYSSIPVIQGIVNEVRQSMQLMLSQLIQQLRTNIQLPACLRVIGYLRRMDVFTEAELRVKFLQARDAWLRSILTAIPNDDPYFHITKTIEASRVHLFDIITQYRAIFSDEDPLLPPAMGEHTVNESAIFHGWVLQKVSQFLQVLETDLYRGIGGHLDSLLGQCMYFGLSFSRVGADFRGQLAPVFQRVAISTFQKAIQETVEKFQEEMNSYMLISAPAILGTSNMPAAVPATQPGTLQPPMVLLDFPPLACFLNNILVAFNDLRLCCPVALAQDVTGALEDALAKVTKIILAFHRAEEAAFSSGEQELFVQFCTVFLEDLVPYLNRCLQVLFPPAQIAQTLGIPPTQLSKYGNLGHVNIGAIQEPLAFILPKRETLFTLDDQALGPELTAPAPEPPAEEPRLEPAGPACPEGGRAETQAEPPSVGP [COG8] | 0.73 | 1.67 | -0.112 | 50.6 °C | 48.4 °C | -0.00808
